Substrate in data set [1]: O=C(O)C1=C[C@@H](O)[C@@H](O)[C@H](O)C1
The experiment in a line: purified protein. It is filed as biochemical, Arabidopsis thaliana. To be noted: apparent Km, 2.5 mM ATP fixed, 100 mM Tris-HCl pH 8.0, 25°C.

Substrate in data set [2]: Nc1ncnc2c1ncn2[C@@H]1O[C@H](COP(=O)(O)OP(=O)(O)OP(=O)(O)O)[C@@H](O)[C@H]1O
As to the kind of experiment: purified protein. It counts as biochemical, Arabidopsis thaliana. To be noted: apparent Km, 2.5 mM shikimate fixed, 100 mM Tris-HCl pH 8.0, 25°C.

B1: AtSK2Δ55 (Arabidopsis thaliana) (protein)
chain: LRSVSDKNSSALLETGSLLHSPFDEEQQILKKKAEEVKPYLNGRSMYLVGMMGSGKTTVGKIMARSLGYTFFDCDTLIEQAMKGTSVAEIFEHFGESVFREKETEALKKLSLMYHQVVVSTGGGAVIRPINWKYMHKGISIWLDVPLEALAHRIAAVGTGSRPLLHDDESGDTYTAALNRLSTIWDARGEAYTKASARVSLENITLKLGYRSVSDLTPAEIAIEAFEQVQSYLEKEDGMARPDGL
notes: predicted N-terminal chloroplast transit peptide removed (55 residues truncated)
For B1, in the data set “purified protein [1]”, the Km (as a rule, the concentration of substrate that gives half-maximal velocity) is 422.15 ± 31.16 µM and the kcat – broadly, the maximal rate divided by the concentration of active sites – was found to be 136 ± 4.97 s⁻¹. Further, in “purified protein [2]”, the Km came to 246.7 ± 22.56 µM and the kcat was 149 ± 5.04 s⁻¹.

B2: AtSK1Δ55 (Arabidopsis thaliana) (protein)
chain: DQRRAVSPAVSCSDNNSSALLETGSVYPFDEDILKRKAEEVKPYLNGRSMYLVGMMGSGKTTVGKLMSKVLGYTFFDCDTLIEQAMNGTSVAEIFVHHGENFFRGKETDALKKLSSRYQVVVSTGGGAVIRPINWKYMHKGISIWLDVPLEALAHRIAAVGTDSRPLLHDESGDAYSVAFKRLSAIWDERGEAYTNANARVSLENIAAKRGYKNVSDLTPTEIAIEAFEQVLSFLEKEETMEIPDGDL
notes: as for B1
For the protein B2, in “purified protein [1]”, the Km turned out to be 648.32 ± 23.45 µM and the kcat was 148 ± 2.32 s⁻¹. In “purified protein [2]”, the Km was found to be 218.02 ± 12.27 µM and the kcat came to 162 ± 3.01 s⁻¹.

Source of the values: paper PMC2593004, “Evolutionary Diversification of Plant Shikimate Kinase Gene Duplicates” (PLoS Genetics, 2008).
